From US20140170677A1

Experiments:
[1] = molecular target: human CXCR4 (Chemokine receptor 4) (human) (UniProt P61073); test: FACS on Hela cells (endogenous CXCR4), antibody at 10 ug/ml
[2] = molecular target: human CXCR4 (Chemokine receptor 4) (human) (UniProt P61073); test: FACS on MDA-MB-231 cells (endogenous CXCR4), antibody at 10 ug/ml
[3] = molecular target: human CXCR4 (Chemokine receptor 4) (human) (UniProt P61073); test: FACS on U937 cells (endogenous CXCR4), antibody at 10 ug/ml

Sequence of UniProt P61073 (P61073 whole entry): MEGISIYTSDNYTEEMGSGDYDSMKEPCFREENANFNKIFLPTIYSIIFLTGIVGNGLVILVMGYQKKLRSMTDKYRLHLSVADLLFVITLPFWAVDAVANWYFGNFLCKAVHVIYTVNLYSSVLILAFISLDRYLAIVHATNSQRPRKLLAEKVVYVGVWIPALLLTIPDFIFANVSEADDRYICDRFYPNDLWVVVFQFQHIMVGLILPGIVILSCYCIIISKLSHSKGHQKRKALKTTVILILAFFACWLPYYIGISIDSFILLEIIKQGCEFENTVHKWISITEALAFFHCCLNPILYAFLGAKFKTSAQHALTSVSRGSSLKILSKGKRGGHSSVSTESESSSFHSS

MFI [1]: 633 MFI
MFI [2]: 59 MFI
MFI [3]: 246 MFI
B1: anti-CXCR4 I-3859 monoclonal antibody (Mab) (antibody, V domains shown)
VH: QVQLKESGPGLVAPSQSLSITCTVSGFSLTDYGVYWVRQPPGKGLEWLGMIWGDGTTDYNSALKSRLSISKDNSKSQVFLKMNTLQTDDTARYYCARGRQFGFDYWGQGTTLTVSS
VL: DIVMSQSPSSLAVSAGEKVTMRCKSSQSLFNSRTRKNYLAWYQQKPGQSPKLLIFWASIRESGVPDRFTGSGSGTDFTLTISSVQAEDLAVYYCKQSYNLRTFGGGTKLEIK
